The target in this assay is T1, human α9 integrin molecule expressed on SW480 cells (human, UniProt Q13797 30-1035).
T1 sequence (looked up): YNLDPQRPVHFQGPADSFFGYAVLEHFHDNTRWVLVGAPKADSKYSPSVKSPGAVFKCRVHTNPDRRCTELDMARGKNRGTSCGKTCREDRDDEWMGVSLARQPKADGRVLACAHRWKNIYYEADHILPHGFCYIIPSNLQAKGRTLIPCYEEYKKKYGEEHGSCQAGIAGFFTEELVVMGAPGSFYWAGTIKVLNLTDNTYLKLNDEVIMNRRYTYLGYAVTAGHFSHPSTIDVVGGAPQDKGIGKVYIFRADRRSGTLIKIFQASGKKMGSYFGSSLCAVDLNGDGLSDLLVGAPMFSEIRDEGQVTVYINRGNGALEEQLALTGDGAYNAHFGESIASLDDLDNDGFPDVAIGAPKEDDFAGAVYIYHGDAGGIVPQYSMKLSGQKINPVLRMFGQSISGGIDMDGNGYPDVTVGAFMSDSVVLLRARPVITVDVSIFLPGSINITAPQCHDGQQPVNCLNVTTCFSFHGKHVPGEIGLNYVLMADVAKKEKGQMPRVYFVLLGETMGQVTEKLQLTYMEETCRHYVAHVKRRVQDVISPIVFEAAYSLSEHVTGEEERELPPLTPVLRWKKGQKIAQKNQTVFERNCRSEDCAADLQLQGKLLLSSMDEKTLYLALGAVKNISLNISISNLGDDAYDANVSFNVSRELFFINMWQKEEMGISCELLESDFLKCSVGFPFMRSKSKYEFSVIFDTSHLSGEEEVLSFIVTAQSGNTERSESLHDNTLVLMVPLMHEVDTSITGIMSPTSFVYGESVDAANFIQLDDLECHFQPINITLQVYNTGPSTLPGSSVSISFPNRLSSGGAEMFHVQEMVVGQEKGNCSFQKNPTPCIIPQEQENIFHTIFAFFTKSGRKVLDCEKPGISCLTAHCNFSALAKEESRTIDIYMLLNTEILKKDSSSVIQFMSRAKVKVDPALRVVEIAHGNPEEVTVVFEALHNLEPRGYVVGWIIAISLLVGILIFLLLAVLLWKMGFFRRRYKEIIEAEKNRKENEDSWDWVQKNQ
The assay is described as follows: cell-based or functional assay.

“And” between values parts separate entries of the source, which are not always exact repeats. Equal values may be shown once.

B1: mouse anti-human α9 integrin antibody Y9A2 (antibody, V domains shown)
VH: QVQLQQSGAELANPGASVKMSCKASGYTLTTYWMHWVKQRPGQGLEWIGYINPSSGYTEYNQKFKDKATLTADKSSSTAYMQLTSLTSEDSAVYYCAIYGDYGDFYFDYWGQGTTLTVSS
VL: SIVMTQTPKFLLVSAGDRVTMTCKASQSVNTDVAWFQQKPGQSPKLLIYFASNHYTGVPDRFTGSGYGTDFTFTISTVQAEDLAIYFCRQDYSSPFTFGGGTKLEIKR
As for B1, the “IC50 (μg/mL), cell adhesion inhibition test” value was 0.07 µg/mL and 0.039 µg/mL; the “concentration giving significant inhibition of migration of SW480/hα9 cells toward nOPN-RAA” value came out at 50 µg/mL.

B2: RY9A2v12 (W33FM34L) 012 antibody (antibody, human IgG1, kappa, V domains shown)
VH: QVQLVQSGAEVKKPGSSVKVSCKASGYTLTTYFLHWVRQAPGQGLEWMGYINPSSGYTEYNQKFQGRVTITADKSTSTAYMELSSLRSEDTAVYYCAIYGDYGDFYFDYWGQGTTVTVSS
VL: DIQMTQSPSSLSASVGDRVTITCRASQSVNTDVAWYQQKPGKAPKLLIYFASNHYTGVPSRFSGSGSGTDFTFTISSLQPEDIATYYCRQDYSSPFTFGGGTKVEIKR
For B2, the “cell adhesion inhibitory activity relative to mouse Y9A2 antibody” value was approximately 4 fold and the “concentration giving significant inhibition of migration of SW480/hα9 cells toward nOPN-RAA” value amounted to 5 µg/mL.

B3: RY9A2v12 (W33YM34L) 012 antibody (antibody, human IgG1, kappa, V domains shown)
VH: QVQLVQSGAEVKKPGSSVKVSCKASGYTLTTYYLHWVRQAPGQGLEWMGYINPSSGYTEYNQKFQGRVTITADKSTSTAYMELSSLRSEDTAVYYCAIYGDYGDFYFDYWGQGTTVTVSS
VL: DIQMTQSPSSLSASVGDRVTITCRASQSVNTDVAWYQQKPGKAPKLLIYFASNHYTGVPSRFSGSGSGTDFTFTISSLQPEDIATYYCRQDYSSPFTFGGGTKVEIKR
B3: the “cell adhesion inhibitory activity relative to mouse Y9A2 antibody” value is approximately 4 fold and the “concentration giving significant inhibition of migration of SW480/hα9 cells toward nOPN-RAA” value was found to be 5 µg/mL.
